According to patent publication US8357523B2, “Beta-glucosidase variant enzymes and related polynucleotides” (Codexis, Inc., priority 2009, dated 2013):
Where a chain is given by its changes, count along the chain named.

B1: 27 (protein)
chain: STAIAQEGAAPAAILHPEKWPRPATQRLIDPAVEKRVDALLKQLSVEEKVGQVIQGDIGTITPEDLRKYPLGSILAGGNSGPNGDDRAPPKEWLDLADAFYRVSLEKRPGHTPIPVLFGIDAVHGHGNIGSATIFPHNIALGATHDPELLRRIGEVTAVEMAATGIDWTFAPALSVVRDDRWGRTYEGFSEDPEIVAAYSAYIVEGVQGKFGSKDFMAPGRIVASAKHFLADGGTDQGRDQGDARISEDELIRIHNAGYPPAIDAGVLTVMASFSSWQGIKHHGHKQLLTDVLKGQMGFNGFIVGDWNAHDQVPGCTKFNCPTSLIAGLDMYMAADSWKQLYENTLAQVKDGTIPMARLDDAVRRILRVKVLAGLFEKPAPKDRPGLPGLETLGSPEHRAVGREAVRKSLVLLKNDKGTLPLSPKARVLVAGDGADNIGKQSGGWTISWQGTGNRNDEFPGATSILGGIRDAVADAGGSVEFDVAGQYKTKPDVAIVVFGEEPYAEFQGDVETLEYQPDQKQDLALLKKLKDQGIPVVAVFLSGRPMWVNPELNASDAFVAAWLPGTEGGGVADVLFTDKAGKVQHDFAGKLSYSWPRTAAQTTVNRGDADYNPLFAYGYGLTYKDKSKVGTLPEESGVPAEARQNAGIYFRAGALRLPGRFL
B2: 63 (protein)
chain: B1 chain with R151W, Y202A
B3: 35 (protein)
chain: B1 chain with Y202K
B4: 30 (protein)
chain: B1 chain with E155D, Y202A
B5: 66 (protein)
chain: B1 chain with Y202A, P219E
B6: 50 (protein)
chain: B1 chain with Y202A, K629C
B7: 34 (protein)
chain: B1 chain with Y202A, I222S
B8: 28 (protein)
chain: B1 chain with Y202A, F211W
B9: 54 (protein)
chain: B1 chain with Y202A, L663Q
B10: 44 (protein)
chain: B1 chain with Y202A, F482Y
B11: 62 (protein)
chain: B1 chain with E155W, Y202A
B12: 39 (protein)
chain: B1 chain with A143Q, Y202A
B13: 56 (protein)
chain: B1 chain with Y202A, S225F
B14: 37 (protein)
chain: B1 chain with I195L, Y202A
B15: 59 (protein)
chain: B1 chain with E155Q, Y202A
B16: 40 (protein)
chain: B1 chain with A173C, Y202A
B17: 38 (protein)
chain: B1 chain with A173S, Y202A
B18: 42 (protein)
chain: B1 chain with Y202A, I222A
B19: 61 (protein)
chain: B1 chain with E155A, Y202A
B20: 52 (protein)
chain: B1 chain with L141I, Y202A
B21: 33 (protein)
chain: B1 chain with V159R, Y202A
B22: 53 (protein)
chain: B1 chain with I153T, Y202A
B23: 32 (protein)
chain: B1 chain with Y202A, I222G
B24: 31 (protein)
chain: B1 chain with A198Q, Y202A
B25: 64 (protein)
chain: B1 chain with A162V, Y202A
B26: 65 (protein)
chain: B1 chain with Y202A, P219Q
B27: 45 (protein)
chain: B1 chain with Y202A, Q487N
B28: 41 (protein)
chain: B1 chain with Y202A, S225C
B29: 60 (protein)
chain: B1 chain with E155K, Y202A
B30: 58 (protein)
chain: B1 chain with E155M, Y202A
B31: 49 (protein)
chain: B1 chain with Y202A, Q487D
B32: 43 (protein)
chain: B1 chain with Y202A, G467Q
B33: 46 (protein)
chain: B1 chain with Y202A, L387R
B34: 48 (protein)
chain: B1 chain with N79D, Y202A
B35: 36 (protein)
chain: B1 chain with A143M, Y202A
B36: 47 (protein)
chain: B1 chain with Y202A, D475K
B37: 51 (protein)
chain: B1 chain with Y202A, D519G
B38: 57 (protein)
chain: B1 chain with Y202A, I222C
B39: 55 (protein)
chain: B1 chain with Y202A, S225T
B40: 29 (protein)
chain: B1 chain with A201P, Y202A

Experiment: High throughput cellobiose assay: fold improvement in cellobiase activity of CelA variants over a control enzyme (Tables 2A-2D, 3, 5, 6, 7)
Format: biochemical
Conditions: 3.3 g/l cellobiose, 50° C. and pH 6.5; compared to native CelA (SEQ ID NO: 4)

| Molecule | Fold improvement over wildtype CelA |
| --- | --- |
| B1 | + (+ = 1.1 to 2.0 fold improvement over native CelA (SEQ ID NO: 4)) |
| B2 | + (+ = 1.1 to 2.0 fold improvement over native CelA (SEQ ID NO: 4)) |
| B3 | + (+ = 1.1 to 2.0 fold improvement over native CelA (SEQ ID NO: 4)) |
| B4 | + (+ = 1.1 to 2.0 fold improvement over native CelA (SEQ ID NO: 4)) |
| B5 | + (+ = 1.1 to 2.0 fold improvement over native CelA (SEQ ID NO: 4)) |
| B6 | + (+ = 1.1 to 2.0 fold improvement over native CelA (SEQ ID NO: 4)) |
| B7 | + (+ = 1.1 to 2.0 fold improvement over native CelA (SEQ ID NO: 4)) |
| B8 | ++ (++ = 2.1 to 2.6 fold improvement over native CelA (SEQ ID NO: 4)) |
| B9 | + (+ = 1.1 to 2.0 fold improvement over native CelA (SEQ ID NO: 4)) |
| B10 | + (+ = 1.1 to 2.0 fold improvement over native CelA (SEQ ID NO: 4)) |
| B11 | + (+ = 1.1 to 2.0 fold improvement over native CelA (SEQ ID NO: 4)) |
| B12 | + (+ = 1.1 to 2.0 fold improvement over native CelA (SEQ ID NO: 4)) |
| B13 | + (+ = 1.1 to 2.0 fold improvement over native CelA (SEQ ID NO: 4)) |
| B14 | + (+ = 1.1 to 2.0 fold improvement over native CelA (SEQ ID NO: 4)) |
| B15 | + (+ = 1.1 to 2.0 fold improvement over native CelA (SEQ ID NO: 4)) |
| B16 | ++ (++ = 2.1 to 2.6 fold improvement over native CelA (SEQ ID NO: 4)) |
| B17 | + (+ = 1.1 to 2.0 fold improvement over native CelA (SEQ ID NO: 4)) |
| B18 | + (+ = 1.1 to 2.0 fold improvement over native CelA (SEQ ID NO: 4)) |
| B19 | + (+ = 1.1 to 2.0 fold improvement over native CelA (SEQ ID NO: 4)) |
| B20 | + (+ = 1.1 to 2.0 fold improvement over native CelA (SEQ ID NO: 4)) |

| Molecule | Fold improvement over wildtype CelA |
| --- | --- |
| B21 | + (+ = 1.1 to 2.0 fold improvement over native CelA (SEQ ID NO: 4)) |
| B22 | + (+ = 1.1 to 2.0 fold improvement over native CelA (SEQ ID NO: 4)) |
| B23 | + (+ = 1.1 to 2.0 fold improvement over native CelA (SEQ ID NO: 4)) |
| B24 | + (+ = 1.1 to 2.0 fold improvement over native CelA (SEQ ID NO: 4)) |
| B25 | + (+ = 1.1 to 2.0 fold improvement over native CelA (SEQ ID NO: 4)) |
| B26 | + (+ = 1.1 to 2.0 fold improvement over native CelA (SEQ ID NO: 4)) |
| B27 | + (+ = 1.1 to 2.0 fold improvement over native CelA (SEQ ID NO: 4)) |
| B28 | ++ (++ = 2.1 to 2.6 fold improvement over native CelA (SEQ ID NO: 4)) |
| B29 | + (+ = 1.1 to 2.0 fold improvement over native CelA (SEQ ID NO: 4)) |
| B30 | + (+ = 1.1 to 2.0 fold improvement over native CelA (SEQ ID NO: 4)) |
| B31 | + (+ = 1.1 to 2.0 fold improvement over native CelA (SEQ ID NO: 4)) |
| B32 | + (+ = 1.1 to 2.0 fold improvement over native CelA (SEQ ID NO: 4)) |
| B33 | + (+ = 1.1 to 2.0 fold improvement over native CelA (SEQ ID NO: 4)) |
| B34 | ++ (++ = 2.1 to 2.6 fold improvement over native CelA (SEQ ID NO: 4)) |
| B35 | + (+ = 1.1 to 2.0 fold improvement over native CelA (SEQ ID NO: 4)) |
| B36 | + (+ = 1.1 to 2.0 fold improvement over native CelA (SEQ ID NO: 4)) |
| B37 | + (+ = 1.1 to 2.0 fold improvement over native CelA (SEQ ID NO: 4)) |
| B38 | + (+ = 1.1 to 2.0 fold improvement over native CelA (SEQ ID NO: 4)) |
| B39 | + (+ = 1.1 to 2.0 fold improvement over native CelA (SEQ ID NO: 4)) |
| B40 | ++ (++ = 2.1 to 2.6 fold improvement over native CelA (SEQ ID NO: 4)) |
